{"source": "patent US20110262525A1", "about": "“METHODS OF TREATMENT” (SCHERING CORPORATION, priority 2006, published 2011)", "molecules": {"B1": {"name": "LCF/HCA: fully human anti-IGF1R antibody comprising the mature 19D12/15H12 light chain F (LCF) and mature heavy chain A (HCA) (antibody, V domains shown)", "VH": "EVQLVQSGGGLVHPGGSLRLSCAASGFTFSSFAMHWVRQAPGKGLEWISVIDTRGATYYADSVKGRFTISRDNAKNSLYLQMNSLRAEDMAVYYCARLGNFYYGMDVWGQGTTVTVSS", "VL": "EIVLTQVPDFQSVTPKEKVTITCRASQSIGSSLHWYQQKPDQSPKLLIKYASQSLSGVPSRFSGSGSGTDFTLTINSLEAEDAAAYYCHQSSRLPHTFGGGTKVEIKRT"}}, "key": {"[1]": {"tested_on": "Rh18 xenograft (EMB Rhabdomyosarcoma)", "assay": "PPTP in vivo xenograft Rh18", "procedure": "(§1) The PPTP includes a molecularly characterized in vitro panel of cell lines (n=27) and in vivo panel of xenografts (n=61) representing most of the common types of childhood solid tumors and childhood ALL (acute lymphoblastic leukemia). LCF/HCA anti-IGF1R antibody was tested against the PPTP in vitro panel at concentrations ranging from 0.01 nM to 100 nM; and was tested against the PPTP in vivo panel at a dose of 0.5 mg per mouse administered twice weekly for four weeks via intraperitoneal injection. Three measures of antitumor activity were used: 1) response criteria modeled after the clinical setting; 2) treated-to-control (T/C) tumor volume at day 21; and 3) a time to event (4-fold increase in tumor volume) measure based on the median EFS of treated and control lines (intermediate activity required EFS (event-free survival) T/C>2, and high activity additionally required a net reduction in median tumor volume at the end of the experiment).\n(§2) Stage 1 testing involved testing an agent across the entire PPTP panel of childhood cancer xenograft lines at its maximum tolerated dose (MTD) or at a dose selected based on PK/PD (pharmacokinetic/pharmacodynamic) studies using adult preclinical models.\n(§3) In vivo solid tumor testing: For each xenograft line, 10 mice bearing subcutaneous (SC) tumors initiated treatment when the tumors were between 0.2-0.5 cm^3 in volume. Two perpendicular tumor diameters were measured at once weekly intervals with digital vernier calipers. Assuming tumors to be spherical, volumes were calculated from the formula (π/6)×d3, where d represented the mean diameter.\n(§4) Drug: LCF/HCA was dissolved in 20mM sodium acetate pH 5 buffer containing 150 mM sodium chloride, and administered intraperitoneally twice weekly for 4 consecutive weeks at a dose of 0.5 mg per animal. […]\n(§5) Median Group Response: Each individual mouse in each treatment group was assigned a response score (see Tables above) and a median score for the treatment group was calculated and then each treatment group was assigned an overall response according to the table below. […]"}, "[2]": {"tested_on": "GBM2 xenograft (Glioblastoma)", "assay": "PPTP in vivo xenograft GBM2", "procedure": "as §1, §2, §3, §4, §5"}, "[3]": {"tested_on": "ALL-3 xenograft (ALL B-precursor)", "assay": "PPTP in vivo leukemia xenograft ALL-3", "conditions": "ALL-3 (ALL B-precursor) xenograft; 0.5 mg per mouse ip twice weekly for four weeks", "procedure": "(§6) The PPTP includes a molecularly characterized in vitro panel of cell lines (n=27) and in vivo panel of xenografts (n=61) representing most of the common types of childhood solid tumors and childhood ALL (acute lymphoblastic leukemia). LCF/HCA anti-IGF1R antibody was tested against the PPTP in vitro panel at concentrations ranging from 0.01 nM to 100 nM; and was tested against the PPTP in vivo panel at a dose of 0.5 mg per mouse administered twice weekly for four weeks via intraperitoneal injection. […]\n(§7) In vivo acute lymphoblastic leukemia testing: For each xenograft line, 8 mice were inoculated with 3-5×10^6 mononuclear cells purified from the spleens of secondary recipient mice. Engraftment was monitored weekly by flow cytometry, and treatment was initiated when the proportion of human CD45+ cells in the peripheral blood reached 1%. The proportion of human CD45+ cells in the peripheral blood was monitored weekly throughout the course of treatment. […]\nas §5"}, "[4]": {"tested_on": "ALL-2 xenograft (ALL B-precursor)", "assay": "PPTP in vivo leukemia xenograft ALL-2", "conditions": "ALL-2 (ALL B-precursor) xenograft; 0.5 mg per mouse ip twice weekly for four weeks", "procedure": "as §6, §7, §5"}, "[5]": {"tested_on": "BT-39 xenograft (Glioblastoma)", "assay": "PPTP in vivo xenograft BT-39", "conditions": "BT-39 (Glioblastoma) xenograft, 0.5 mg per mouse ip twice weekly for four weeks", "procedure": "as §1, §2, §3, §4, §5"}, "[6]": {"tested_on": "D456 xenograft (Glioblastoma)", "assay": "PPTP in vivo xenograft D456", "procedure": "as §1, §2, §3, §4, §5"}, "[7]": {"tested_on": "NB-EBc1 xenograft (Neuroblastoma)", "assay": "PPTP in vivo xenograft NB-EBc1", "set-up": "key to EFS activity notation (high, intermediate, indeterminate): high (!); intermediate (#); indeterminate (^)", "procedure": "as §1, §2, §3\n(§8) Drug: LCF/HCA was dissolved in 20mM sodium acetate pH 5 buffer containing 150 mM sodium chloride, and administered intraperitoneally twice weekly for 4 consecutive weeks at a dose of 0.5 mg per animal. The antibody was provided to each testing site in coded vials for blinded testing according the PPTP's standard operating procedures.\n(§9) Median Group Response: Each individual mouse in each treatment group was assigned a response score (see Tables above) and a median score for the treatment group was calculated and then each treatment group was assigned an overall response according to the table below.\n(§10) Statistical Methods: Event-free survival (EFS) distributions of each treatment group were compared to the EFS distribution of the respective control group using the exact log rank test. P-values were 2-sided & were not adjusted for multiple comparisons given the exploratory nature of this study. P-values<0.05 were considered to be significant."}, "[8]": {"tested_on": "Rh41 xenograft (ALV Rhabdomyosarcoma)", "assay": "PPTP in vivo xenograft Rh41", "from_the_text": "The PPTP includes a molecularly characterized in vitro panel of cell lines (n=27) and in vivo panel of xenografts (n=61) representing most of the common types of childhood solid tumors and childhood ALL (acute lymphoblastic leukemia).\nas §2, §3\nThe antibody was provided to each testing site in coded vials for blinded testing according the PPTP's standard operating procedures.\nas §9, §10"}, "[9]": {"tested_on": "Rh28 xenograft (ALV Rhabdomyosarcoma)", "assay": "PPTP in vivo xenograft Rh28", "set-up": "key to EFS activity notation (high, intermediate, indeterminate): high (!); intermediate (#); indeterminate (^)", "procedure": "as §1, §2, §3, §8, §9, §10"}, "[10]": {"tested_on": "ALL-4 xenograft (ALL B-precursor)", "assay": "PPTP in vivo leukemia xenograft ALL-4", "conditions": "ALL-4 (ALL B-precursor) xenograft; 0.5 mg per mouse ip twice weekly for four weeks", "procedure": "as §6, §7, §5"}, "[11]": {"tested_on": "BT-50 xenograft (Medulloblastoma)", "assay": "PPTP in vivo xenograft BT-50", "conditions": "BT-50 (Medulloblastoma) xenograft, 0.5 mg per mouse ip twice weekly for four weeks", "procedure": "as §1, §2, §3, §4, §5"}, "[12]": {"tested_on": "Human melanoma cells (A375-SM)", "assay": "Cell-Titer Glo assay, A375-SM melanoma", "assay_type": "cell-based", "conditions": "0.000256-100 nM antibody"}, "[13]": {"tested_on": "ALL-8 xenograft (ALL T-cell)", "assay": "PPTP in vivo leukemia xenograft ALL-8", "conditions": "ALL-8 (ALL T-cell) xenograft; 0.5 mg per mouse ip twice weekly for four weeks", "procedure": "as §6, §7, §5"}, "[14]": {"tested_on": "OS-31 xenograft (Osteosarcoma)", "assay": "PPTP in vivo xenograft OS-31", "conditions": "OS-31 (Osteosarcoma) xenograft, 0.5 mg per mouse ip twice weekly for four weeks", "procedure": "as §1, §2, §3, §4, §5"}, "[15]": {"tested_on": "BT-28 xenograft (Medulloblastoma)", "assay": "PPTP in vivo xenograft BT-28", "conditions": "BT-28 (Medulloblastoma) xenograft, 0.5 mg per mouse ip twice weekly for four weeks", "procedure": "as §1, §2, §3, §4, §5"}, "[16]": {"tested_on": "Rh30R xenograft (ALV Rhabdomyosarcoma)", "assay": "PPTP in vivo xenograft Rh30R", "procedure": "as §1, §2, §3, §8, §9, §10"}, "[17]": {"conditions": "0.5 mg per mouse ip twice weekly for four weeks"}, "[18]": {"conditions": "day 21, 0.5 mg per mouse ip twice weekly for four weeks"}}, "note": "Marks after values point to notes of the source that are not given here."}
{"molecule": "B1", "values": [{"measurement": "EFS T/C", "setting": "[1]; [17]", "result": 1}, {"measurement": "Median Final RTV", "setting": "[1]; [17]", "result": ">4"}, {"measurement": "Tumor Volume T/C", "setting": "[1]; [18]", "result": 0.74}, {"measurement": "EFS T/C", "setting": "[2]; [17]", "result": 1.4}, {"measurement": "Median Final RTV", "setting": "[2]; [17]", "result": ">4"}, {"measurement": "Tumor Volume T/C", "setting": "[2]; [18]", "result": 0.73}, {"measurement": "EFS T/C", "setting": "[3]", "result": 0.4}, {"measurement": "Median Final RTV", "setting": "[3]", "result": ">25"}, {"measurement": "EFS T/C", "setting": "[4]", "result": 0.7}, {"measurement": "Median Final RTV", "setting": "[4]", "result": ">25"}, {"measurement": "EFS T/C", "setting": "[5]", "result": 1.1}, {"measurement": "Median Final RTV", "setting": "[5]", "result": ">4"}, {"measurement": "Tumor Volume T/C", "setting": "[5]; day 21", "result": 0.87}, {"measurement": "EFS T/C", "setting": "[6]; [17]", "result": 1.1}, {"measurement": "Median Final RTV", "setting": "[6]; [17]", "result": ">4"}, {"measurement": "Tumor Volume T/C", "setting": "[6]; [18]", "result": 0.77}, {"measurement": "EFS T/C", "setting": "[7]; [17]", "result": "> 2.0"}, {"measurement": "EFS activity notation (high, intermediate, indeterminate)", "setting": "[7]; [17]", "result": "#"}, {"measurement": "Median Final RTV", "setting": "[7]; [17]", "result": "1.4#"}, {"measurement": "Overall Group Response", "setting": "[7]; [17]", "result": "PD2 (1 < MS ≦ 3)"}, {"measurement": "Tumor Volume T/C", "setting": "[7]; [18]", "result": 0.8}, {"measurement": "EFS T/C", "setting": "[8]; [17]", "result": 1.1}, {"measurement": "Median Final RTV", "setting": "[8]; [17]", "result": ">4"}, {"measurement": "Tumor Volume T/C", "setting": "[8]; [18]", "result": 0.65}, {"measurement": "EFS T/C", "setting": "[9]; [17]", "result": "> 2.6"}, {"measurement": "EFS activity notation (high, intermediate, indeterminate)", "setting": "[9]; [17]", "result": "#"}, {"measurement": "Median Final RTV", "setting": "[9]; [17]", "result": "2.9#"}, {"measurement": "Overall Group Response", "setting": "[9]; [17]", "result": "PD2 (1 < MS ≦ 3)"}, {"measurement": "Tumor Volume T/C", "setting": "[9]; [18]", "result": 0.36}, {"measurement": "EFS T/C", "setting": "[10]", "result": 0.8}, {"measurement": "Median Final RTV", "setting": "[10]", "result": ">25"}, {"measurement": "Median Final RTV", "setting": "[11]", "result": 1.4}, {"measurement": "Overall Group Response", "setting": "[11]", "result": "PD2 (1 < MS ≦ 3)"}, {"measurement": "Tumor Volume T/C", "setting": "[11]; day 21", "result": 0.94}, {"measurement": "in vitro growth of melanoma cell line", "setting": "[12]", "result": "in vitro growth inhibition"}, {"measurement": "EFS T/C", "setting": "[13]", "result": 1.5}, {"measurement": "Median Final RTV", "setting": "[13]", "result": ">25"}, {"measurement": "EFS T/C", "setting": "[14]", "result": 1.3}, {"measurement": "Median Final RTV", "setting": "[14]", "result": ">4"}, {"measurement": "Tumor Volume T/C", "setting": "[14]; day 21", "result": 0.88}, {"measurement": "EFS T/C", "setting": "[15]", "result": 1.2}, {"measurement": "Median Final RTV", "setting": "[15]", "result": ">4"}, {"measurement": "Tumor Volume T/C", "setting": "[15]; day 21", "result": 1.18}, {"measurement": "EFS T/C", "setting": "[16]; [17]", "result": 1.8}, {"measurement": "Median Final RTV", "setting": "[16]; [17]", "result": ">4"}, {"measurement": "Overall Group Response", "setting": "[16]; [17]", "result": "PD2 (1 < MS ≦ 3)"}, {"measurement": "Tumor Volume T/C", "setting": "[16]; [18]", "result": 0.49}]}
